Experimental findings from patent US20250011413A1 (MCMASTER UNIVERSITY, published 2025) are described below.

The Kd is a measure of binding affinity in units of concentration. The term koff denotes the first-order rate constant of dissociation. Read a high koff as a short-lived complex. A word on the kon: it is the second-order rate constant of association. Read a low kon as slow association. Usually IC50 stands for the concentration that inhibits the measured activity by half. Low readings indicate greater potency, high ones weaker potency.

The target in experiment [1] is T1, PF4/heparin complex (human PF4 complexed with heparin) (human, UniProt P02776 32-101).
T1 construct: Multimeric complex of PF4 with heparin (not a protein); In the EIAs: PF4 captured on biotinylated heparin on streptavidin plates; In the SRA: platelets with 0.2 U/mL heparin; also called PF4 and heparin complexes
T1 sequence: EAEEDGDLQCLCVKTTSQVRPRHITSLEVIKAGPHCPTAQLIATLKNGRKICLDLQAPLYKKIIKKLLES
The experiment in a line: competition EIA, scFv 50 µg/mL; competitor HIT-negative sera antibodies, n=10.

Experiment [2] concerns the target T1, PF4/heparin complex (human PF4 …). The experiment is described as follows: competition EIA, scFv 50 µg/mL; competitor HIT-positive sera antibodies, n=10. As to the method: (§1) Inhibitory PF4/heparin IgG-specific Streptavidin Enzyme Immunoassay (EIA). The binding activity of wildtype and mutant scFv antibodies to PF4/heparin complexes was measured using an inhibitory PF4/heparin IgG-specific EIA with a streptavidin-biotin capture system. Before performing this protocol, 96-well NUNC Maxisorp plates (ThermoFisher) were coated with 10 μg/mL streptavidin for 24 h. Plates were then blocked with 3% bovine serum albumin (BSA) in phosphate buffered saline (PBS) for 2 h at room temperature. Plates were then coated with 1 U/mL biotinylated-heparin for 1 h followed by 30 μg/mL PF4 for 1 h. Increasing concentrations of wildtype or mutant scFv were added and incubated for 1 hr at room temperature. Without removing wildtype or scFv, HIT patient sera in a 1:50 dilution or full-length KKO (2 μg/mL) was then incubated for 1 h at room temperature. After washing, alkaline phosphatase-conjugated anti-human or anti-mouse IgG (Jackson Immuno Research Laboratories, Inc., West Grove, PA) was added at a 1:4000 dilution and incubated for 1 h temperature. For detection, 1 mg/mL p-nitrophenylphosphate (PNPP, Sigma-Aldrich) substrate dissolved in 1 mol/L diethanolamine (DEA) buffer (pH 9.6) was added. The optical density (OD) was measured at 2 min intervals for 30 min at 405 nm (OD₄₀₅ₙₘ) using a BioTek 800 TS plate reader (BioTek Instruments Inc., Winooski, VT) to determine if anti-PF4/heparin antibody binding was inhibited. Results were reported as a decrease in OD (absorbance at 405 nm) from baseline levels.
Inhibiting HIT-Positive (EIA+/SRA+) HIT-Negative (EIA+/SRA−) antibody binding: Sera (n=10) from confirmed HIT-positive patients (EIA-positive/SRA-positive) containing anti-PF4/heparin antibodies were used in a modified streptavidin-biotin based anti-PF4/heparin IgG EIA (streptavidin anti-PF4/hep EIA) with scFv at 50 μg/mL. On average, antibody binding to PF4/heparin was reduced in the presence of scFv.

The target in experiment [3] is T2, Human PF4 (CXCL4), biotinylated, without heparin (human, UniProt P02776 32-101, biotinylated with EZ-link-Sulfo-NHS-LC-Biotin (sites not given)).
T2 construct: Immobilised on streptavidin biosensors for BLI; also called PF4 alone; platelet factor 4
T2 sequence: T1 sequence
The experiment is described as follows: BLI (Octet), biotinylated PF4 without heparin on streptavidin sensors, scFv 1 µg/mL, 1:1 model. The protocol:
(§2) The Octet-QK Red 96 (FortéBio, Menlo Park, CA) instrumentation was used to conduct all BLI experiments. A 96-well microtiter plate (black, flat-bottom) was used to hold 200 μL per well of either sample or buffer. Pre-coated streptavidin biosensor tips (FortéBio) were hydrated in phosphate buffered saline (PBS) containing 1% bovine serum albumin (BSA, Sigma-Aldrich) before performing all kinetic assays. Each step was performed at an operating temperature of 23° C. with agitation at 1000 rpm. Streptavidin tips were first equilibrated in PBS+1% BSA to establish a baseline. […] The PF4-coated tips were then dipped into PBS+1% BSA for 13 minutes to re-establish a baseline. Tips were then incubated in an analyte solution containing half-fold dilutions of wildtype scFv (4.0, 2.0, 1.0, 0.5, 0.25 μg/mL in PBS+1% BSA) for 10 minutes to measure association. For mutant scFv association, tips were incubated in an analyte solution containing 200 μL of each mutant and wildtype scFv at a final concentration of 1 μg/mL in PBS+1% BSA. Antibody dissociation steps were performed by dipping sensors in wells containing PBS+1% BSA for 56 minutes. The following negative controls included in these kinetic experiments were also measured: 200 μL of buffer to replace both the antigen and scFv and 200 μL buffer replacing scFv only. Each experiment was performed with PF4 or with PF4/heparin as the immobilized antigen.
(§3) BLI experiments were performed to evaluate binding responses and affinities of wildtype and mutant scFv. Biotinylated PF4 alone or complexed with heparin was immobilized on streptavidin biosensors and used to capture wildtype scFv. Half-fold serial dilutions of wildtype scFv ranging from 0.25 μg/mL to 4 μg/mL were used to determine the optimal concentrations for future experiments PF4 (PF4 FIG. 3; PF4/heparin FIG. 4).
(Biolayer interferometry detects binding as a change in optical thickness at a sensor tip.)

The target in experiment [4] is T2, Human PF4 (CXCL4), biotinylated, …. The experiment in a line: BLI (Octet), biotinylated PF4 without heparin on streptavidin sensors, scFv at 1 µg/mL, 1:1 model, mean ± s.d. [cont.) b]. The protocol:
BLI experiments were performed using wildtype scFv, mutant B, mutant C, mutant D, mutant E, and mutant F at 1 μg/mL. Binding was measured against immobilized biotinylated PF4 on streptavidin biosensors. b) Table showing kinetic data of wildtype and mutant scFv, including binding responses and association and dissociation rates. All data was analyzed based on a 1:1 homogenous ligand binding model using Octet® User Software version 3.1.
as §2
BLI experiments were performed to evaluate binding responses and affinities of wildtype and mutant scFv. Biotinylated PF4 alone or complexed with heparin was immobilized on streptavidin biosensors and used to capture wildtype scFv.

In experiment [5] the target is T1, PF4/heparin complex (human PF4 …). The experiment in a line: BLI (Octet), biotinylated PF4/heparin on streptavidin sensors, scFv 1 µg/mL. As to the method:
as §2, §3

Experiment [6] shares this target. The experiment in a line: competition EIA on PF4/biotinylated heparin, scFv 0-160 µg/mL; competitor full-length KKO 2 µg/mL. As to the method:
as §1
To further evaluate the binding of mutant and wildtype scFv, their ability to inhibit full-length KKO from binding PF4/heparin complexes was assessed in a modified streptavidin-capture EIA. Biotinylated heparin was immobilized with PF4 on streptavidin-coated plates and incubated with KKO in the presence of scFv at half-fold serial dilutions from 0 to 160 μg/mL. […] Wildtype scFv and mutant C were unable to inhibit full-length KKO binding at these concentrations and IC50 values for these constructs were not calculated.

Changes are numbered by the printed parent chain. Numbers in names are those of the source. Where “and” joins values, the source holds several entries; their conditions need not be identical. Equal values may be shown once.

B1: Wildtype scFv (KKO-derived single chain variable fragment) (scFv)
scFv: DIQMIQSQKFMSTSVGDRVTVTCKASQNVGTNVAWYQQKPGQSPNALIYSASYRYSGVPDRFTGSGSGTDFTLTITNVQSEDLADYFCQQYNSYPLTFGTGTKLDLKGGGGSGGGGSGGGGSVQLQQSGAELVKPGASVKLSCKASGYTFTNYFIYWVKQRPGQGLEWIGEINPRNGDTDFNEKFESRATLTVDKSSSTAYMQLSSLTSEDSAIYYCTRSPYGNNYGFTYWGQGTLVTVSA
notes: VL-(G4S)3 linker-VH; expressed in E. coli BL21 from pADL-22c, purified on Ni-NTA as histidine-tagged scFv, about 28 kDa; also called WT; KKO-scFv; not shown: histidine tag from the pADL-22c vector
Consider B1, for which the “mean % inhibition of serum antibody binding” value (from here on “mean % inhibition”) in experiment [1] is -38.3%. The “mean OD405nm of bound serum IgG (+ scFv)” value in experiment [2] amounted to 0.931 OD405nm. This molecule showed a Kd in experiment [3] of 1320 nM. In experiment [4], this molecule came in with a koff of 0.00255 s⁻¹ and a kon of 12500 M⁻¹ s⁻¹. In addition, in experiment [5], the “average binding response (wavelength shift)” value was determined as 0.0758 nm.

B2: Mutant D scFv, scFv(Y156H) (scFv)
scFv: B1 scFv with Y156H
notes: VL-linker-VH; histidine-tagged, from E. coli BL21; also called Mut D; not shown: histidine tag from the pADL-22c vector
For B2, in experiment [6], the IC50 is 111 nM and 3.1 µg/mL. Besides, in experiment [1], the “mean % inhibition” value was -17.3%. The “mean OD405nm of bound serum IgG (+ scFv)” value in experiment [2] amounted to 0.283 OD405nm. In experiment [3], the affinity, expressed as Kd, was 5.83 nM and the “fold stronger affinity than wildtype scFv” value amounted to 1000 fold. In experiment [4], this molecule came in with a koff of 0.000103 s⁻¹ and an on-rate constant (kon) of 25700 M⁻¹ s⁻¹. Also, in experiment [5], the “average binding response (wavelength shift)” value worked out at 0.133 nm and the “fold higher binding response than wildtype scFv” value is at least 3 fold.

B3: Mutant F scFv, scFv(E183V, E186K, G223R) (scFv)
scFv: B1 scFv with E183V, E186K, G223R
notes: VL-linker-VH; histidine-tagged, from E. coli BL21; also called Mut F; not shown: histidine tag from the pADL-22c vector
Take B3: the IC50 in experiment [6] was 1.3 µg/mL. Besides, the “mean % inhibition” value in experiment [1] was -57%. The “mean OD405nm of bound serum IgG (+ scFv)” value in experiment [2] turned out to be 0.281 OD405nm. This molecule displayed a Kd in experiment [3] of 0.607 nM. In experiment [4], this molecule had a koff of 2.52e-05 s⁻¹ and a kon of 42200 M⁻¹ s⁻¹. For the same molecule, in experiment [5], the “average binding response (wavelength shift)” value was 0.285 nm and the “fold increase of binding response against wildtype scFv” value stood at 5 fold.

B4: Mutant B scFv, scFv(R18K, N152K, D180N) (scFv)
scFv: B1 scFv with R18K, N152K, D180N
notes: VL-linker-VH; histidine-tagged, from E. coli BL21; also called Mut B; not shown: histidine tag from the pADL-22c vector
On to B4, for which the IC50 in experiment [6] is 57.3 nM and 1.6 µg/mL. The “mean % inhibition” value in experiment [1] is -31.4%. Besides, in experiment [2], the “mean OD405nm of bound serum IgG (+ scFv)” value turned out to be 0.275 OD405nm. In experiment [3], the Kd turned out to be 1.69 nM and the “fold change of KD against wildtype scFv” value is 1000 fold. In experiment [4], the koff is 5.07e-05 s⁻¹ and the kon turned out to be 30200 M⁻¹ s⁻¹. For the same molecule, in experiment [5], the “average binding response (wavelength shift)” value was found to be 0.379 nm and the “fold increase of binding response against wildtype scFv” value was found to be 4 fold.

B5: Mutant E scFv, scFv(Y156H, D180G, Q233P) (scFv)
scFv: B1 scFv with Y156H, R175K, D180G, Q233P
notes: VL-linker-VH; histidine-tagged, from E. coli BL21; also called Mut E; not shown: histidine tag from the pADL-22c vector
Turning to B5, the IC50 in experiment [6] is 293 nM and 8.2 µg/mL. Further, the “mean % inhibition” value in experiment [1] was -34%. Besides, the “mean OD405nm of bound serum IgG (+ scFv)” value in experiment [2] was 0.319 OD405nm. Further, in experiment [3], the dissociation constant (Kd) was found to be 0.954 nM and the “fold stronger affinity than wildtype scFv” value was 10000 fold. In addition, in experiment [4], the koff stood at 0.000124 s⁻¹ and the on-rate constant (kon) is 69300 M⁻¹ s⁻¹. The “average binding response (wavelength shift)” value in experiment [5] turned out to be 0.0907 nm.
